Laboratory results from patent US10155985B2, “Evaluation of eosinophilic esophagitis” (CHILDREN'S HOSPITAL MEDICAL CENTER, priority 2004, dated 2018).

B1: SEQ_ID_#978 (nucleic acid, listed as Homo sapiens)
DNA: GTATATGTTAAAAAAAGAGAAGGTCGCATTATGGACAGACTTCGTGAATGGGAATTTGCTTAGAATTGTGAGTAGTTCTGAATTAGAAAAGTATGTGAAGGAAAGGCAGCTGTAAACGTATTGTGCCCTGGAGAGTTGTACACATGTTGAAATGTAATCTGGGCTTACCTGATCCATTTGGAGTGGATGTCACTGCCGAGTCTGTTCTCACATGGAACCATGTGTGTGGGGTTGCCAGCCTCACAGATACAATCAATCCTATTCCCCTCTGACATAAGGAACTCCTCTGGAGTGGCAGAGTCTTATCACAGAAGGCAGCCACCATTTCACCAAAACAAAAGTTCACGGCATTCAATTCCTTTTTCCTTTAGCTATTTATATATGCAGTACTCTCAGTCATATGCAGAAATACTTTTTTTTTTTAATTAATAGTTACAGGCTTGTTGGTCCAGTGGGATTTGGGTAGGGGGAGAAAGATACCTTCTAAAATGGATCAATAGAACCAAAATAATACAGCATGTTCTATAACCACAAGGAAATCAAATGATCCTGTCATGATTCCAGTTAGTCATAACTATGTTAGCAGTGCTAAATGCATTTTAGAAATGGTGACTTCTGTGGTTTTCCTAGCATTTGTCTCTAACAAATGGTGAAATAATTACTCATGGCCCTCTCTGCCATTGTCTTTCATTTTTTCACAGTGAAATTAGACCCCTTTACTTCACCATTCTGCCACTGCAAATTAAGTATAAAGAAAATAGCAAGAGTGTCCACACCAGTAGACAGTAAGCTTCTCTACCTGTAAGTGATGAAATCATAGCTAATGCACTTGCCATGGAGTTTTCAAGATGATTGGTGTCAGACAGTTTTCACTTTGTTTAAAAAGTGTTGGTGGCCTTTTGTGGTGGTGTTACAATCCTCTGGGGGCTTAGGAGGATGTTGATGCAACTTTTAGAAGCTTTTAATTTCAAAAACAACTCAAAAATCTGAAGGACAGTCATAGCTGCCACTCAGCCCCAGTTAGTCAAACCCCAGTGACCTTTGCCCCTGGTTGCCAAGGGCTTTGCAACATCAAGCAGGGAAATAAGGATCTGTCTGTTTAGTGGATACCGTGTATCCTTTAATAGACCAGGTAACAGTTCGTGTTAGTTTAGACTATTGTTTTGTACTGTACTTTCTTGGGTGGCAGAGGAAAGAAAAGTAAAACATT
B2: SEQ_ID_#917 (nucleic acid, listed as Homo sapiens)
DNA: TTGTTTGGAAAGATGAAAAATTTATTAGAAAAGATCTTTAAATGGCTTTTACTAAAGCGTCATTTAACAATTTTTCATATTATAGAAACAGCTTTTCATGGATGGTGTGACTGGGTCTGTATCCAAACCCGGTTCGGTTCCTGGAGCCAACGGCGTAGTTAACACTCAGCCTCTTGCAGTTAACACTCAGCCTCTTAACTGGGAGTGGCCCTGGAGCAAGTCGCTGGAATGTTCAAGCTCCGCGTCACTCATCGGTACCAAGTTGATGATCTCTGCCTAGGGTTCTTCGCCACCCTCAGGCTCAAGTCCCAGGAGGCCTCCTCCGCTGACTTGGGTGAACAGCTCTGAGTTCCGGAGAGGGTTCGGTCTGCGGAGAAGCGCGCGAGAGACAAGCATCCTCAAGGTTCTGGTACAAAATTTGGAAAATGACCTGGCGTTGAAATCTTTACTCCTCGTTTAAAAAGACCATCGAAAGGGAAAAAATAAAAGAAATTGCAGTTTATATTTTTGTTATCCCATGAAAAATTAGCTGCAGTGTTTTCCTCTTCATGCCAAAGAGATTAATATTTACGGTGAAGACTTTTCCAGGAAGTCGTGGTTTTCTGGGGCCCTGCCTCTGAGCCTTTTGTTTCCTCCTTTTTAAAAACACCGGATGAAAGACCCAGTGTGCCTTGGATCGCAGAGCGCGGCCGCATGTCTGCTTTGA
B3: SEQ_ID_#948 (nucleic acid, listed as Homo sapiens)
DNA: AGAGGCGGGCTTCCCTCGGAAAACGGAGGGTTGAAACCCAGAAAGCTCCTCGGAGCCCTTCTGGGGTTCGGGCGATCTGGGCAGAGAACTCTCGGGTGGCAAGGAATTAAGGGCAGCGCGAACGACGGTCTCTAGACAAGTATGAAGCCTCCCCTGAGTGTGTCCGGCGCTCAGGGGGTGGACCGGGGTGTTGGTTTCAAGGAGGGGGCCATCGTTTGCACCACGGCGTCCAGAAATACTCATCCTTTGCCCTTCGGGGAGGCAACAGAGCAGCCAACTGACTGTTCTGGCCAAAGAGACTGGAGATCCAGTATCAGCAAGCTACTTTCTTGGTAAACCTCCATTTCCCAATGCTCATCTTTGTCCTCTACCCCCACCCATCCCAAGGCAAATGATGAAAACATCTATTGGATCCAGCCTTTGCTATCTTCTCCATGCTGCTCATAGTGGGTCTAGCAATGTCCCATTCTCGGTAATGTTTGGTAGGTCTAAAACATCCTCACGAAATGTTCCCCAAATGTTCTGCTCCAGCTGAGCAACTAATAACAATGGGAAGATGCAGAAAAAAAATGCATGGAGCATAATGTTAGTTTTGGGACTCGTCAGTGGCAACGTTTTAGAGATGCCATGAAGAATTCCTGGTAATAATCCTTCTTCCTACAGCATTTAGCAATGAATACTATGGGATTATGGCTAAAAGATGGTCAAGACTGCCTCAGCCATTAGGATCAGAATTCTAAGTTCCAAAGAAGAGCAAACTCAAGAGGATTTCCTCAGGCCTCTGACTATAGATGCTGCCTGGGGAGAACAGGTGCTACACTCAAAACATTCTCATTTTATTTATATCCTCCCTGAACTAGTACCCAACTCCATAACCCCAGACTCAAATAACAGAAATAAAAGCCATCTCACTGATTATAAGCTCTCTAGTTATTACAAAAATAAATAAGCATCAATCAACCAACAGGCATCAGAATGAGAAAATCACTGATTTGAGACATTCAGGCTGCAGGAAAAGAACACTTTTTGTTAATATGTAACTATATCTTCAGTAGTACAGAAAAATGAGAAGAACGAGAGTTCTTACCTGGATTTGCGGCTCACTTAAAGTAGAGCACCTGAGATGCTGGGAAATCATAAAGATAAATAACCAATCTAACAAATTCCTGCCATGAGACCAAAGTGATCCTTGACTACTCTATTAGTAAGCGACTCTGAGCCAAGAGTACGAACCTGTAAGTGGAGTGGTGGTTGGCCCATTAGAAATCTCTGAAAGATCTAAACATGACAGTTACCTTCCTACTGGACTCATACTTCTCAATTCCCTCTCCTAAAAGAATACTTTTGGGCTGGCCCCAGTGGCTCACACCTGTAATCTCGGCACTTTGGGAAGCCAAGGTGGGAGGATTGCTTGAGGACAAGAGTTTGAGACCAGCTCGGTGGAAACATAGCACCATCCATGTCTCTACC
B4: SEQ_ID_#953 (nucleic acid, listed as Homo sapiens)
DNA: TGGTTTCGGTCTATTTATCCAGGGACACCACAGCTTTGGAGGCAGCAAACATGCCCATTTGTTACTATTTGCAAAGATGGTGTACACCAAACATGGGCTTTCCGTAAACAAATTAAAAAGTAATAAAGTGGCCCCATCTGCATACTAGAGCAATGTGCTTCCATTTTAATGAAGCTTGCTATAGAAAAGCCATTTGATGGCTTGTCAAAAGCGTGAATGCCTGTGGCTGAACGTGGAAGTATGCTGTGGTGCAAAGACGTAGTCCTTTCTTCCTCCAGTATGCACGGGGCACCTGCCACACCTGCTGCAAGGACCTGGTCCTGCCCCTAGGCCATCTGCTACGCCAAGGAGACCCAGGTCTTTCCAGTTTCTACCAGGCCCTTTAATGCTCTATCCTGTGGCCCACCCAAGGTTGCAGAGCTGGTAAGCTCTGGAGGTTGAACACAGGCAGTCTGGGCAGAGTGCCTGCTCACTGTCCTGCCTCTCCT

Each molecule was assayed on EE transcriptome (assay: Genome-wide microarray transcript profiling of esophageal biopsies, EE patients vs normal individuals (EE transcriptome)). Conditions: transcript level in esophageal biopsies of EE patients compared to normal individuals (NL); Affymetrix Human Genome U133 plus 2; p<0.01; >1 up-regulated, <1 down-regulated.
Protocol: Esophageal tissue obtained from patients previously diagnosed with EE was analyzed. Diagnosis was based on analysis of excised tissue from endoscopic biopsy. Tissues from patients with EE, as well as patients not having EE (controls) were subjected to genome-wide microarray transcript profiling (Affymetrix GeneChip). All work was performed at the Core facility at Children's Hospital Medical Center (Cincinnati Ohio).
Briefly, RNA quality was first assessed using the Agilent bioanaiyzer (Agilent Technologies, Palo Alto Calif.). Only mRNA having a ratio of 28S/18S between 1.3 and 2 were subsequently used. RNA was converted to cDNA with Superscript choice for cDNA synthesis (Invitrogen, Carlsbad Calif.) and subsequently converted to biotinylated cRNA with Enzo High Yield RNA Transcript labeling kit (Enzo Diagnostics, Farmingdale N.Y.). After hybridization to the GeneChip (Affymetrix, Santa Clara Calif.), the chips were automatically washed and stained with streptavidin-phycoerythrin using a fluidics system. The chips were scanned with a Hewlett Packard GeneArray Scanner. Over 30,000 unique genes were screened.
Levels of gene transcripts were determined from data image files, using algorithms in the Microarray Analysis Suite software (Affymetrix). Levels from chip to chip were compared by global scaling. Each gene was typically represented by a probe set of 16 to 20 probe pairs. Each probe pair consisted of a perfect match oligonucleotide and a mismatch oligonucleotide that contained a one base mismatch at a central position. Two measures of gene expression were used, absolute call and average difference. Absolute call is a qualitative measure in which each gene is assigned a call of present, marginal or absent, based on the hybridization of the RNA to the probe set. Average difference is a quantitative measure of the level of gene expression, calculated by taking the difference between […] of every probe pair and averaging the differences over the entire probe set. Data were normalized and an EE transcriptome gene list was created with results having p<0.01 (Welch t-test with or without false rate discovery) and ≥1.5-fold change.
For evaluation of EE using clinical and/or physical assessment, biopsy tissues (obtained from the distal esophagus during routine endoscopy) were submerged in formalin for routine pathological analysis with hematoxylin and eosin staining. Diagnosis was established based on the maximum eosinophil count per high power field (hpf) and basal layer expansion according to method known in the art (e.g., established criteria in Rothenberg et al., Pathogenesis and clinical features of eosinophilic esophagitis. J Allergy Clin Immunol 108 (2001) 891; Attwood et al., Esophageal eosinophilia with dysphagia. A distinct clinicopathologic syndrome. Dig Dis Sci 38 (1993)109; Fox et al., Eosinophilic esophagitis: its not just kid's stuff. Gastrointest Endosc 56 (2002) 26, each of which is expressly incorporated by reference herein in its entirety. Normal individuals (NL), n=13, served as a control and were defined as having 0 eosinophils/hpf and no basal layer expansion. Individuals with EE (n=76) were defined as having >24 eosinophils/hpf and extensive basal layer hyperplasia (expansion to about >⅓ of epithelium).
The data were analyzed by cluster analysis and ordered (standard correlation (A) and distance (B)) using Genespring software. […] Each column represented a separate individual and each line a gene. RNA from each patient was subjected to chip analysis using Affymetrix Human Genome U133 GeneChip plus 2.
In the case of B1, the “Fold Change” value is reported as 0.62.
For B2, the “Fold Change” value was 0.637.
B3 was tested, and the “Fold Change” value was 0.629.
B4 was tested, and the “Fold Change” value was 0.627.
